Results published in patent US20140087995A1 (published 2014).
Numbered stars: 1 amine (or outer) side, 2 acyl side, 3 side chain; on linkers, the order of the positions; unused ones are H or OH. Bridge positions count the residues as written; N and C are the ends. Side chains are listed from the residue outwards. Ends that are not written are not given here. * marks the point of attachment. C20 diacid = O=C(O)CCCCCCCCCCCCCCCCCCC(=O)*; γGlu = O=C(O)[C@H](CCC(=O)[*:2])N[*:1]

T1: human amylin receptor (amylin 3(a) receptor: human calcitonin receptor co-expressed with RAMP-3) (human, UniProt P30988 25-474; O60896 24-148)
T1 construct: whole, on cells; functional assay (Assay IIa) used the whole cells; also called hAmylin-R; hAmylinR
T1 sequence (looked up) 1: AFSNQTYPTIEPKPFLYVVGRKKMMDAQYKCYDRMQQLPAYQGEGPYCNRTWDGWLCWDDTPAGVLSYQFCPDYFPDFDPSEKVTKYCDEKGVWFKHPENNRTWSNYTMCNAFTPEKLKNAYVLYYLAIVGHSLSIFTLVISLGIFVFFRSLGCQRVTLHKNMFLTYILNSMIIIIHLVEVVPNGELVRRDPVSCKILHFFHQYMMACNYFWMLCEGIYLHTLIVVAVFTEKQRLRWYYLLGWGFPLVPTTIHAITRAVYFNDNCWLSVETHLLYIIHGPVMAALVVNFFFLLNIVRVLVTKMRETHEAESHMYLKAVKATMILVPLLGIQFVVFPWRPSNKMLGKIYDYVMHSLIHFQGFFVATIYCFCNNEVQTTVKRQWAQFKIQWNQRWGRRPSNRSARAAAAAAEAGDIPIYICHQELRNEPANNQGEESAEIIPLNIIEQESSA
T1 sequence (looked up) 2: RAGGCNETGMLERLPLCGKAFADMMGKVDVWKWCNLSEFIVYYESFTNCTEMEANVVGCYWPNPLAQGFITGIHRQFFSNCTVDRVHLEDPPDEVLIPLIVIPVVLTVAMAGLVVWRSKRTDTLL

T2: human calcitonin receptor (human, UniProt P30988 25-474)
T2 sequence (looked up): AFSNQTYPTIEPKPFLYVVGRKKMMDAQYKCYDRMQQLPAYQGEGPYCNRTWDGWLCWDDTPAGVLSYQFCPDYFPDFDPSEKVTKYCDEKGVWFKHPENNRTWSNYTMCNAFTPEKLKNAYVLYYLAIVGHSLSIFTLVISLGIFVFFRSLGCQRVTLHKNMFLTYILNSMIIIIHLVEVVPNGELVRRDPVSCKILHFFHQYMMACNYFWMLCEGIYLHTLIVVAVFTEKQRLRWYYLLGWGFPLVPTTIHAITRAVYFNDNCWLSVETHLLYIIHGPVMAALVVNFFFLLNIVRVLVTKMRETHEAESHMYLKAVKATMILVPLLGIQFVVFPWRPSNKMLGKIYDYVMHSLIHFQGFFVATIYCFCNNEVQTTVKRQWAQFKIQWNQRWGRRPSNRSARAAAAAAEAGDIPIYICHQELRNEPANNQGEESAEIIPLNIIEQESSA

T3: human calcitonin receptor (human, UniProt P30988 25-474)
T3 sequence (looked up): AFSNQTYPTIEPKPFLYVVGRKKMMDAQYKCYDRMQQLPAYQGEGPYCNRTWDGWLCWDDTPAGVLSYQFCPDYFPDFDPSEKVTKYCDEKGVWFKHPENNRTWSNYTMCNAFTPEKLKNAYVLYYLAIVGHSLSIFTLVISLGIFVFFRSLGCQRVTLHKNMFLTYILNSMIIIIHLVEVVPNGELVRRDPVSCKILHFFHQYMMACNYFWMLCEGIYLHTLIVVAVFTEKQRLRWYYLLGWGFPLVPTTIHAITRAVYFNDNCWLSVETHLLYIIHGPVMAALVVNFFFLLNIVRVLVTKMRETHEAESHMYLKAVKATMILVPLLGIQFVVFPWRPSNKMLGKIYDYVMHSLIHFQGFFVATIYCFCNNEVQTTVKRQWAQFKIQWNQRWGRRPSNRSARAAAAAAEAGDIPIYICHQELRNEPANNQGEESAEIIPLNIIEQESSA

T4: human amylin receptor (amylin 3(a) receptor: human calcitonin receptor plus RAMP-3) (human, UniProt P30988 25-474; O60896 24-148, limits assumed)
T4 sequence (looked up) 1: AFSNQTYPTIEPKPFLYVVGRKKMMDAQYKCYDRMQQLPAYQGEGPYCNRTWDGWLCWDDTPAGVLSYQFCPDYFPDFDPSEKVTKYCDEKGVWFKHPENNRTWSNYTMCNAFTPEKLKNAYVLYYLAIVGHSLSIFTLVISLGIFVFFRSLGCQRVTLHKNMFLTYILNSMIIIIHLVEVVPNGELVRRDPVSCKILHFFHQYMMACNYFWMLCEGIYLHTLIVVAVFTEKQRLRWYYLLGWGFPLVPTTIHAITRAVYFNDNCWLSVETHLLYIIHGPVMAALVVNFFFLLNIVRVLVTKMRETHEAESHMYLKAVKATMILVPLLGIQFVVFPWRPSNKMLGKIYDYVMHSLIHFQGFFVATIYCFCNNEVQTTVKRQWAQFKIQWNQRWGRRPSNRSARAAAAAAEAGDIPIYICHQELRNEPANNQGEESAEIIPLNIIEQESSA
T4 sequence (looked up) 2: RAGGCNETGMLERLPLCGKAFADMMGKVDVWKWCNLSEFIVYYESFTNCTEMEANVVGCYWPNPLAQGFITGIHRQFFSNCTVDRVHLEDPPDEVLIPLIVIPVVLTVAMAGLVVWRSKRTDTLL


Key:
[1] = target: T1, human amylin receptor (amylin 3(a) …); assay: SPA competition binding, membranes of Amylin 3(a)/CRE-luc BHK cells, displacement of 125I-rat amylin (Assay V)
In short: (§1)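 SPA beads with BHK Amylin 3(a)/CRE-luc cell membranes (35 ng/μL final) in 50 mM Hepes pH 7.4, 1 mM CaCl2, 5 mM MgCl₂, 0.1% OA, 0.02% Tween20.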

[2] = target: T2, human calcitonin receptor; assay: cell-based or functional assay
[3] = target: T1, human amylin receptor (amylin 3(a) …); assay: cell-based or functional assay
[4] = target: T3, human calcitonin receptor; assay: cell-based or functional assay; remark: listed apart in the source
[5] = target: T4, human amylin receptor (amylin 3(a) …); assay: cell-based or functional assay
[6] = target: T4, human amylin receptor (amylin 3(a) …); assay: SPA competition binding, displacement of 125I-rat amylin from membranes of BHK cells with human calcitonin receptor + RAMP-3 (Assay V)
In short: as §1

Binder | IC50 [1] [nM] | Ratio hCT/hAmylin funct. (hCTR EC50 against hAmylin-R EC50) [2] | hCTR funct. EC50 (pM), CRE-luciferase reporter in BHK calcitonin (a) receptor cells [2] [pM] | hAmylin-R funct. EC50 (pM), CRE-luciferase reporter in BHK amylin 3(a) receptor cells [3] [pM] | hCTR funct. EC50 [4] [nM] | Ratio hCT/hAmylin funct. [5] [ratio] | hAmylin-R funct. EC50 [5] [nM] | IC50 [6] [nM]
K([γGlu-γGlu-C20 diacid])CNTATCATQRLAEFLRHSSNNPGAILSSTNVGPETY-NH2 (disulfide 2-7 (inferred), Synthetic acylated analogue of human amylin) | 1.19 | 17.3 | 89600 | 5170 |  |  |  | 
{C20 diacid-γGlu}-KCNTATCATQRLANFLRHSSPNFGAIPSSTNVGPETY-NH2 (disulfide 2-7; SMILES CC[C@H](C)[C@H](NC(=O)[C@H](C)NC(=O)CNC(=O)[C@H](Cc1ccccc1)NC(=O)[C@H](CC(N)=O)NC(=O)[C@@H]1CCCN1C(=O)[C@H](CO)NC(=O)[C@H](CO)NC(=O)[C@H](Cc1c[nH]cn1)NC(=O)[C@H](CCCNC(=N)N)NC(=O)[C@H](CC(C)C)NC(=O)[C@H](Cc1ccccc1)NC(=O)[C@H](CC(N)=O)NC(=O)[C@H](C)NC(=O)[C@H](CC(C)C)NC(=O)[C@H](CCCNC(=N)N)NC(=O)[C@H](CCC(N)=O)NC(=O)[C@@H](NC(=O)[C@H](C)NC(=O)[C@@H]1CSSC[C@H](NC(=O)[C@H](CCCCN)NC(=O)CC[C@H](NC(=O)CCCCCCCCCCCCCCCCCCC(=O)O)C(=O)O)C(=O)N[C@@H](CC(N)=O)C(=O)N[C@@H]([C@@H](C)O)C(=O)N[C@@H](C)C(=O)N[C@@H]([C@@H](C)O)C(=O)N1)[C@@H](C)O)C(=O)N1CCC[C@H]1C(=O)N[C@@H](CO)C(=O)N[C@@H](CO)C(=O)N[C@H](C(=O)N[C@@H](CC(N)=O)C(=O)N[C@H](C(=O)NCC(=O)N1CCC[C@H]1C(=O)N[C@@H](CCC(=O)O)C(=O)N[C@H](C(=O)N[C@@H](Cc1ccc(O)cc1)C(N)=O)[C@@H](C)O)C(C)C)[C@@H](C)O, Synthetic acylated analogue of human amylin; also called compound 29) |  |  |  |  | 0.857 | 8.7 | 0.099 | 0.577
{C20 diacid-γGlu}-KCNTATCATQRLAEFLRHSSPNFGAIPSSTNVGHNTY-NH2 (disulfide 2-7; SMILES CC[C@H](C)[C@H](NC(=O)[C@H](C)NC(=O)CNC(=O)[C@H](Cc1ccccc1)NC(=O)[C@H](CC(N)=O)NC(=O)[C@@H]1CCCN1C(=O)[C@H](CO)NC(=O)[C@H](CO)NC(=O)[C@H](Cc1c[nH]cn1)NC(=O)[C@H](CCCNC(=N)N)NC(=O)[C@H](CC(C)C)NC(=O)[C@H](Cc1ccccc1)NC(=O)[C@H](CCC(=O)O)NC(=O)[C@H](C)NC(=O)[C@H](CC(C)C)NC(=O)[C@H](CCCNC(=N)N)NC(=O)[C@H](CCC(N)=O)NC(=O)[C@@H](NC(=O)[C@H](C)NC(=O)[C@@H]1CSSC[C@H](NC(=O)[C@H](CCCCN)NC(=O)CC[C@H](NC(=O)CCCCCCCCCCCCCCCCCCC(=O)O)C(=O)O)C(=O)N[C@@H](CC(N)=O)C(=O)N[C@@H]([C@@H](C)O)C(=O)N[C@@H](C)C(=O)N[C@@H]([C@@H](C)O)C(=O)N1)[C@@H](C)O)C(=O)N1CCC[C@H]1C(=O)N[C@@H](CO)C(=O)N[C@@H](CO)C(=O)N[C@H](C(=O)N[C@@H](CC(N)=O)C(=O)N[C@H](C(=O)NCC(=O)N[C@@H](Cc1c[nH]cn1)C(=O)N[C@@H](CC(N)=O)C(=O)N[C@H](C(=O)N[C@@H](Cc1ccc(O)cc1)C(N)=O)[C@@H](C)O)C(C)C)[C@@H](C)O, Synthetic acylated analogue of human amylin; also called compound 17) |  |  |  |  | 2.35 | 8.8 | 0.268 | 0.878
{C20 diacid-γGlu}-KCNTATCATQRLAEFLRHSSPNFGAIPSSTNVGPNTY-NH2 (disulfide 2-7; SMILES CC[C@H](C)[C@H](NC(=O)[C@H](C)NC(=O)CNC(=O)[C@H](Cc1ccccc1)NC(=O)[C@H](CC(N)=O)NC(=O)[C@@H]1CCCN1C(=O)[C@H](CO)NC(=O)[C@H](CO)NC(=O)[C@H](Cc1c[nH]cn1)NC(=O)[C@H](CCCNC(=N)N)NC(=O)[C@H](CC(C)C)NC(=O)[C@H](Cc1ccccc1)NC(=O)[C@H](CCC(=O)O)NC(=O)[C@H](C)NC(=O)[C@H](CC(C)C)NC(=O)[C@H](CCCNC(=N)N)NC(=O)[C@H](CCC(N)=O)NC(=O)[C@@H](NC(=O)[C@H](C)NC(=O)[C@@H]1CSSC[C@H](NC(=O)[C@H](CCCCN)NC(=O)CC[C@H](NC(=O)CCCCCCCCCCCCCCCCCCC(=O)O)C(=O)O)C(=O)N[C@@H](CC(N)=O)C(=O)N[C@@H]([C@@H](C)O)C(=O)N[C@@H](C)C(=O)N[C@@H]([C@@H](C)O)C(=O)N1)[C@@H](C)O)C(=O)N1CCC[C@H]1C(=O)N[C@@H](CO)C(=O)N[C@@H](CO)C(=O)N[C@H](C(=O)N[C@@H](CC(N)=O)C(=O)N[C@H](C(=O)NCC(=O)N1CCC[C@H]1C(=O)N[C@@H](CC(N)=O)C(=O)N[C@H](C(=O)N[C@@H](Cc1ccc(O)cc1)C(N)=O)[C@@H](C)O)C(C)C)[C@@H](C)O, Synthetic acylated analogue of human amylin; also called compound 32) |  |  |  |  | 0.327 | 6.6 | 0.05 | 0.1
{C20 diacid-γGlu-γGlu}-KCNTATCATQRLAEFLRHSSPNFGAIPSSTNVGSNTY-NH2 (disulfide 2-7; SMILES CC[C@H](C)[C@H](NC(=O)[C@H](C)NC(=O)CNC(=O)[C@H](Cc1ccccc1)NC(=O)[C@H](CC(N)=O)NC(=O)[C@@H]1CCCN1C(=O)[C@H](CO)NC(=O)[C@H](CO)NC(=O)[C@H](Cc1c[nH]cn1)NC(=O)[C@H](CCCNC(=N)N)NC(=O)[C@H](CC(C)C)NC(=O)[C@H](Cc1ccccc1)NC(=O)[C@H](CCC(=O)O)NC(=O)[C@H](C)NC(=O)[C@H](CC(C)C)NC(=O)[C@H](CCCNC(=N)N)NC(=O)[C@H](CCC(N)=O)NC(=O)[C@@H](NC(=O)[C@H](C)NC(=O)[C@@H]1CSSC[C@H](NC(=O)[C@H](CCCCN)NC(=O)CC[C@H](NC(=O)CC[C@H](NC(=O)CCCCCCCCCCCCCCCCCCC(=O)O)C(=O)O)C(=O)O)C(=O)N[C@@H](CC(N)=O)C(=O)N[C@@H]([C@@H](C)O)C(=O)N[C@@H](C)C(=O)N[C@@H]([C@@H](C)O)C(=O)N1)[C@@H](C)O)C(=O)N1CCC[C@H]1C(=O)N[C@@H](CO)C(=O)N[C@@H](CO)C(=O)N[C@H](C(=O)N[C@@H](CC(N)=O)C(=O)N[C@H](C(=O)NCC(=O)N[C@@H](CO)C(=O)N[C@@H](CC(N)=O)C(=O)N[C@H](C(=O)N[C@@H](Cc1ccc(O)cc1)C(N)=O)[C@@H](C)O)C(C)C)[C@@H](C)O, Synthetic acylated analogue of human amylin; also called compound 15) |  |  |  |  | 3.43 | 8.9 | 0.386 | 0.597
K([γGlu-γGlu-C20 diacid])CNTATCATQRLAEFLRHSSPNFGAIPSSTNVGPETP-NH2 (disulfide 2-7 (inferred), Synthetic acylated analogue of human amylin) | 0.533 | 0.8 | 102 | 132 |  |  |  | 
K([γGlu-C20 diacid])CNTATCATQRLAEFLRHSSPNFGAIPSSTNVGSHTY-NH2 (disulfide 2-7 (inferred), Synthetic acylated analogue of human amylin) | 0.992 | 13.1 | 5580 | 425 |  |  |  | 
K([γGlu-γGlu-C20 diacid])CNTATCATQRLAEFLRHSSPNFGAIPSSTNVGPNTF-NH2 (disulfide 2-7 (inferred), Synthetic acylated analogue of human amylin) | 0.152 | 9.9 | 2140 | 216 |  |  |  | 
